Measurements: paper PMC5396282, “Characterization of Carboxylic Acid Reductases as Enzymes in the Toolbox for Synthetic Chemistry” (Chemcatchem, 2017)
One block for each molecule: values may come before it.

Experiments:
[1] = biological target: T1, mpCAR (Mycolicibacterium phlei, UniProt A0A5N5VEC4); test: NADPH oxidation at […] nm, product inhibition kinetics; format: biochemical; conditions: pH 7.5, 30 °C, 10 mM MgCl2
T1 construct: gene car; expressed in E. coli BL21(DE3) with B. subtilis Sfp (phosphopantetheinylated); around 130 kDa

[2] = tested on: CCCCCCCCCCCC(=O)O; test: purified protein; format: biochemical, Nocardia iowensis; conditions: 1 mM ATP, […] NADPH, 10 mM MgCl2, 100 mM Tris-HCl pH 7.5, 30 °C
[3] = tested on: O=C(O)/C=C/c1ccccc1; test: purified protein; format: biochemical, Nocardia iowensis; conditions: 1 mM ATP, […] NADPH, 10 mM MgCl2, 100 mM Tris-HCl pH 7.5, 30 °C
[4] = tested on: COc1ccc(C(=O)O)cc1; test: purified protein; conditions: 1 mM ATP, 0.25 mM NADPH, 10 mM MgCl2, 100 mM Tris-HCl pH 7.5, 30 °C
[5] = tested on: CCCCCCCCCCCC(=O)O; test: purified protein; conditions: 1 mM ATP, […] NADPH, 10 mM MgCl2, 100 mM Tris-HCl pH 7.5, 30 °C
[6] = tested on: CCCCCCCCCCCCCCCCCC(=O)O; test: purified protein; conditions: 1 mM ATP, […] NADPH, 10 mM MgCl2, 100 mM Tris-HCl pH 7.5, 30 °C
[7] = tested on: O=C(O)C#Cc1ccccc1; test: purified protein; format: biochemical, Tsukamurella paurometabola; conditions: 1 mM ATP, […] NADPH, 10 mM MgCl2, 100 mM Tris-HCl pH 7.5, 30 °C
[8] = tested on: CCCCCCCCCCCC(=O)O; test: purified protein; format: biochemical, Tsukamurella paurometabola; conditions: 1 mM ATP, […] NADPH, 10 mM MgCl2, 100 mM Tris-HCl pH 7.5, 30 °C
[9] = tested on: CCCCCCCC(=O)O; test: purified protein; format: biochemical, Tsukamurella paurometabola; conditions: 1 mM ATP, […] NADPH, 10 mM MgCl2, 100 mM Tris-HCl pH 7.5, 30 °C
[10] = tested on: CCCCCCCCCCCCCCCCCC(=O)O; test: purified protein; format: biochemical, Tsukamurella paurometabola; conditions: 1 mM ATP, […] NADPH, 10 mM MgCl2, 100 mM Tris-HCl pH 7.5, 30 °C
[11] = substrate: CCCCCCCCCCCC(=O)O; test: purified protein; format: biochemical, Mycolicibacterium smegmatis; conditions: 1 mM ATP, […] NADPH, 10 mM MgCl2, 100 mM Tris-HCl pH 7.5, 30 °C
[12] = substrate: O=C(O)/C=C/c1ccccc1; test: purified protein; conditions: 1 mM ATP, 0.25 mM NADPH, 10 mM MgCl2, 100 mM Tris-HCl pH 7.5, 30 °C
[13] = substrate: Cc1ccc(C(=O)O)cc1; test: purified protein; conditions: 1 mM ATP, 0.25 mM NADPH, 10 mM MgCl2, 100 mM Tris-HCl pH 7.5, 30 °C
[14] = substrate: CCCCCCCC(=O)O; test: purified protein; conditions: 1 mM ATP, 0.25 mM NADPH, 10 mM MgCl2, 100 mM Tris-HCl pH 7.5, 30 °C

Ki ([1]; competitive with ATP): 8200 ± 900 µM
Molecule: Nc1ncnc2c1ncn2[C@@H]1O[C@H](COP(=O)(O)O)[C@@H](O)[C@H]1O [AMP]

Ki ([1]; competitive with NADPH): 143 ± 8 µM
Molecule: NC(=O)c1ccc[n+]([C@@H]2O[C@H](COP(=O)(O)OP(=O)(O)OC[C@H]3O[C@@H](n4cnc5c(N)ncnc54)[C@H](OP(=O)(O)O)[C@@H]3O)[C@@H](O)[C@H]2O)c1 [NADP^+]

Ki ([1]; mixed inhibition with ATP): 220 ± 50 µM
Molecule: O=P(O)(O)OP(=O)(O)O [PPi]

Molecule: niCAR (Nocardia iowensis)
Km [2]: 20 ± 10 µM
kcat [2]: 2.62 ± 0.15 s⁻¹
kcat/Km [2]: 117000 ± 33300 M⁻¹ s⁻¹
Km [3]: 50 ± 20 µM
kcat [3]: 0.128 ± 0.0117 s⁻¹
kcat/Km [3]: 2830 ± 1170 M⁻¹ s⁻¹
Km [4]: 250 ± 10 µM
kcat [4]: 0.817 s⁻¹
kcat/Km [4]: 3330 M⁻¹ s⁻¹

Molecule: noCAR (Nocardia otitidiscaviarum)
Km [5]: 40 ± 10 µM
kcat [5]: 1.65 ± 0.05 s⁻¹
kcat/Km [5]: 41700 ± 5000 M⁻¹ s⁻¹
Km [6]: 20 ± 10 µM
kcat [6]: 0.183 ± 0.0167 s⁻¹
kcat/Km [6]: 8330 ± 5000 M⁻¹ s⁻¹

Molecule: tpCAR (Tsukamurella paurometabola DSM 20162)
Km [7]: 90 ± 20 µM
kcat [7]: 0.1 ± 0.0667 s⁻¹
kcat/Km [7]: 1170 ± 667 M⁻¹ s⁻¹
Km [8]: 40 ± 10 µM
kcat [8]: 2.62 ± 0.0833 s⁻¹
kcat/Km [8]: 60000 ± 6670 M⁻¹ s⁻¹
Km [9]: 200 ± 10 µM
kcat [9]: 3.65 ± 0.05 s⁻¹
kcat/Km [9]: 19000 ± 833 M⁻¹ s⁻¹
Km [10]: 120 ± 30 µM
kcat [10]: 0.25 ± 0.0167 s⁻¹
kcat/Km [10]: 2000 ± 500 M⁻¹ s⁻¹

B1: msCAR (Mycolicibacterium smegmatis MC2 155) (protein)
chain: MTSDVHDATDGVTETALDDEQSTRRIAELYATDPEFAAAAPLPAVVDAAHKPGLRLAEILQTLFTGYGDRPALGYRARELATDEGGRTVTRLLPRFDTLTYAQVWSRVQAVAAALRHNFAQPIYPGDAVATIGFASPDYLTLDLVCAYLGLVSVPLQHNAPVSRLAPILAEVEPRILTVSAEYLDLAVESVRDVNSVSQLVVFDHHPEVDDHRDALARAREQLAGKGIAVTTLDAIADEGAGLPAEPIYTADHDQRLAMILYTSGSTGAPKGAMYTEAMVARLWTMSFITGDPTPVINVNFMPLNHLGGRIPISTAVQNGGTSYFVPESDMSTLFEDLALVRPTELGLVPRVADMLYQHHLATVDRLVTQGADELTAEKQAGAELREQVLGGRVITGFVSTAPLAAEMRAFLDITLGAHIVDGYGLTETGAVTRDGVIVRPPVIDYKLIDVPELGYFSTDKPYPRGELLVRSQTLTPGYYKRPEVTASVFDRDGYYHTGDVMAETAPDHLVYVDRRNNVLKLAQGEFVAVANLEAVFSGAALVRQIFVYGNSERSFLLAVVVPTPEALEQYDPAALKAALADSLQRTARDAELQSYEVPADFIVETEPFSAANGLLSGVGKLLRPNLKDRYGQRLEQMYADIAATQANQLRELRRAAATQPVIDTLTQAAATILGTGSEVASDAHFTDLGGDSLSALTLSNLLSDFFGFEVPVGTIVNPATNLAQLAQHIEAQRTAGDRRPSFTTVHGADATEIRASELTLDKFIDAETLRAAPGLPKVTTEPRTVLLSGANGWLGRFLTLQWLERLAPVGGTLITIVRGRDDAAARARLTQAYDTDPELSRRFAELADRHLRVVAGDIGDPNLGLTPEIWHRLAAEVDLVVHPAALVNHVLPYRQLFGPNVVGTAEVIKLALTERIKPVTYLSTVSVAMGIPDFEEDGDIRTVSPVRPLDGGYANGYGNSKWAGEVLLREAHDLCGLPVATFRSDMILAHPRYRGQVNVPDMFTRLLLSLLITGVAPRSFYIGDGERPRAHYPGLTVDFVAEAVTTLGAQQREGYVSYDVMNPHDDGISLDVFVDWLIRAGHPIDRVDDYDDWVRRFETALTALPEKRRAQTVLPLLHAFRAPQAPLRGAPEPTEVFHAAVRTAKVGPGDIPHLDEALIDKYIRDLREFGLI
notes: expressed in E. coli BL21(DE3) with B. subtilis Sfp (phosphopantetheinylated); one of three M. smegmatis paralogues, distinct from the CAR of Moura et al
Km [11]: 50 ± 10 µM
kcat [11]: 2.18 ± 0.0833 s⁻¹
kcat/Km [11]: 45000 ± 6670 M⁻¹ s⁻¹
Km [12]: 75 ± 4 µM
kcat [12]: 1.97 s⁻¹
kcat/Km [12]: 26700 M⁻¹ s⁻¹
Km [13]: 160 ± 20 µM
kcat [13]: 2.57 s⁻¹
kcat/Km [13]: 15000 M⁻¹ s⁻¹
Km [14]: 100 ± 10 µM
kcat [14]: 4.93 s⁻¹
kcat/Km [14]: 50000 M⁻¹ s⁻¹
